Experiments:
[1] = molecular target: the molecule itself; assay: X-ray crystal structure superimposed on the design model; homotrimer
Source text: (§1) The optimum conditions for crystallization of the different designs were found as follows: 2L6HC3_6, 0.2 M Sodium Fluoride, 0.1 M MES pH 5.5 and 20% PEG 400; 2L6HC3_12, 2.2 M Sodium Malonate pH 5.0; 2L6HC3_13, 0.06 M Citric acid, 0.04 M BIS-TRIS propane pH 4.1 and 16% PEG 3,350; 2L8HC4_12, 0.2 M Sodium Acetate trihydrate, 0.1 M Tris hydrochloride pH 8.5 and 30% PEG 4,000; 3L6HC2_2, 0.1 M Sodium Acetate trihydrate pH 4.5 and 3.0 M Sodium chloride; 2L4HC2_23, 0.2 M Lithium chloride and 20% PEG 3,350; 2L4HC2_9, 0.1 M Sodium citrate tribasic dehydrate […]; 2L4HC2_11, 0.1 M Tris pH 8.5 and 2.0 M Ammonium sulfate; 5L6HC3_1, 0.1 M acid pH 3.5 and 3.0 M Sodium chloride; and 2L4HC2_24 was concentrated to 20 mg/ml and crystallized in 0.1 M Citric acid pH 3.5, 2.0 M Ammonium sulfate. […]
(§2) The crystals of the designed proteins were placed in a reservoir solution containing 15 to 20% (v/v) glycerol, and then flash-cooled in liquid nitrogen. […] All the design structures were determined by the molecular-replacement method with the program PHASER within the Phenix suite using the design models as the initial search model. […] Root-mean-square deviation differences from ideal geometries for bond lengths, angles and dihedrals were calculated with Phenix. The overall stereochemical quality of all final models was assessed using the program MOLPROBITY.

[2] = molecular target: the molecule itself; assay: X-ray crystal structure; homotrimer
Source text: as §1, §2

[3] = molecular target: the molecule itself; assay: X-ray crystal structure; homodimer
Source text: as §1, §2

[4] = molecular target: the molecule itself; assay: SAXS against the homotetramer design model
Procedure: (§3) Samples were purified by gel filtration in 20 mM Tris pH 8.0 at room temperature, 150 mM NaCl and 2% glycerol; fractions preceding the void volume of the column were used as blanks for buffer subtraction. Scattering measurements were performed at the SIBYLS 12.3.1 beamline at the Advanced Light Source. The X-ray wavelength (λ) was 1 Å, and the sample-to-detector distance of the Mar 165 detector was 1.5 m, corresponding to a scattering vector q (q=4πsin θ/λ, where 2θ is the scattering angle) range of 0.01 to 0.3 Å−1. Data sets were collected using exposures of 0.5, 1, and 6 seconds at 12 keV. […] For each sample, data was collected for at least two different concentrations to test for concentration-dependent effects; “high” concentration samples ranged from 3-7 mg/ml and “low” concentration samples ranged from 1-2 mg/ml. […] FoXS was used to compare design models to experimental scattering profiles and calculate quality of fit (X) values. For the design models, extra residues introduced by the expression vector were added to the computational models using Rosetta™ Remodel so that the design sequence matched that of the experimental sample. To capture the conformational flexibility of these extra tag residues in solution, 100 independent models were generated per design. These 100 models were then clustered by Rosetta™, and to avoid bias, the cluster center of the largest cluster was selected as the single representative model used for fitting to experimental data.

[5] = molecular target: the molecule itself; assay: oligomeric state of the purified design, and SAXS; antiparallel homodimer
Procedure: as §3

[6] = molecular target: the molecule itself; assay: SAXS, design model fit to the scattering data with FoXS
Procedure: (§4) Samples were purified by gel filtration in 20 mM Tris pH 8.0 at room temperature, 150 mM NaCl and 2% glycerol; fractions preceding the void volume of the column were used as blanks for buffer subtraction. Scattering measurements were performed at the SIBYLS 12.3.1 beamline at the Advanced Light Source. The X-ray wavelength (λ) was 1 Å, and the sample-to-detector distance of the Mar 165 detector was 1.5 m, corresponding to a scattering vector q (q=4πsin θ/λ, where 2θ is the scattering angle) range of 0.01 to 0.3 Å−1. Data sets were collected using exposures of 0.5, 1, and 6 seconds at 12 keV. […] For each sample, data was collected for at least two different concentrations to test for concentration-dependent effects; “high” concentration samples ranged from 3-7 mg/ml and “low” concentration samples ranged from 1-2 mg/ml. […] FoXS was used to compare design models to experimental scattering profiles and calculate quality of fit (X) values. For the design models, extra residues introduced by the expression vector were added to the computational models using Rosetta™ Remodel so that the design sequence matched that of the experimental sample. To capture the conformational flexibility of these extra tag residues in solution, 100 independent models were generated per design. […]

[7] = molecular target: the molecule itself; assay: SAXS against the parallel homodimer design model
Procedure: as §4

[8] = molecular target: the molecule itself; assay: X-ray crystal structure superimposed on the design model; homodimer
Source text: as §1, §2

[9] = molecular target: the molecule itself; assay: X-ray crystal structure (3.8 Å) and SAXS; homotetramer
Procedure: The crystals of the designed proteins were placed in a reservoir solution containing 15 to 20% (v/v) glycerol, and then flash-cooled in liquid nitrogen. The X-ray data sets were collected at the Berkeley Center for Structural Biology beamlines 5.0.1, 8.2.1 and 8.2.2 of the Advanced Light Source at Lawrence Berkeley National Laboratory (LBNL). Data sets were indexed and scaled using HKL2000. All the design structures were determined by the molecular-replacement method with the program PHASER within the Phenix suite using the design models as the initial search model. The atomic positions obtained from molecular replacement and the resulting electron density maps were used to build the design structures and initiate crystallographic refinement and model rebuilding. Structure refinement was performed using the phenix.refine program. Manual rebuilding using COOT and the addition of water molecules allowed construction of the final models. Root-mean-square deviation differences from ideal geometries for bond lengths, angles and dihedrals were calculated with Phenix. The overall stereochemical quality of all final models was assessed using the program MOLPROBITY.
Samples were purified by gel filtration in 20 mM Tris pH 8.0 at room temperature, 150 mM NaCl and 2% glycerol; fractions preceding the void volume of the column were used as blanks for buffer subtraction. […]

[10] = molecular target: the molecule itself; assay: oligomeric state and CD of the synthetic peptide in PBS; self-association
[11] = molecular target: the molecule itself; assay: characterisation of the purified design (method not given); self-association

B1: 2L6HC3_13 (designed binder)
chain: GTKYELRRALEELEKALRELKKSLDELERSLEELEKNPSEDALVENNRLNVENNKIIVEVLRIIAEVLKINAKSD
notes: Monomer subunit of a designed left-handed C3 homotrimer; entries pair it with itself; also called AAXX
B1: binds [1].

B2: 5L6HC3_1 (designed binder)
chain: SEELRAVADLQRLNIELARKLLEAVARLQELNIDLVRKTSELTDEKTIREEIRKVKEESKRIVEEAEEEIRRAKEESRYIADESRGS
notes: Monomer subunit of a designed untwisted C3 homotrimer; entries pair it with itself; also called untwisted trimer
B2: binds [2].

B3: 2L4HC2_24 (designed binder)
chain: GTDTDELLRLAKEQAELLKEIKKLVEEIARLVKEIQEDPSDELLKTLAELVRKLKELVEDMERSMKEQLYIIKKQKS
notes: Monomer subunit of a designed left-handed C2 homodimer; entries pair it with itself
B3: binds [3].

B4: 5L8HC4_6 (designed binder)
chain: GSKDTEDSRKIWEDIRRLLEEARKNSEEIWKEITKNPDTSEIARLLSEQLLEIAEMLVRIAELLSRQTEQR
notes: Monomer subunit of a designed untwisted C4 homotetramer; entries pair it with itself
B4: binds [4].

B5: 2L6Hanti_1 (designed binder)
chain: SDYLRLATEHNKLAVEANRLAIELAKSAVELAETDPSKTALEHAELAARLLEMMVQFTKAAQELTREAIRKEGRNEESEKVLRKSKEAYKESEKALEDARRLLDELRKKGS
notes: Monomer subunit (three helices) of a designed left-handed antiparallel homodimer; entries pair it with itself
B5: binds [5].

B6: 2L6Hanti_2 (designed binder)
chain: SEELRKAAENNELAVRLAEAALRMARSALHLFEENPSDEMLKFLELAMEVAKMAAELLKASLKMLKKAAEERGSDESVKYLADKSRDIMRQITEELKKLEEEAKRAQKRGS
notes: Monomer subunit of a designed left-handed antiparallel homodimer; entries pair it with itself
B6: binds [5].

B7: 2L6Hanti_4 (designed binder)
chain: SRRLELAARINKAAAENARSAIEIQELAARLADELSSSKKVIDFARATTEVLRMSVKLLKLSLEMLEEAARQDGRSEEVRYLAEESKKILEEARKALEDADRLTKRIEEEGS
notes: as for B6
B7: binds [5].

B8: 5L4HC2_12 (designed binder)
chain: GTETKKLVEEVERALRELLKTSEDLVRKVEKALRELLELIRRGGTKDKIEEKIRRVLEEIKRELERQKRKIEDVLRQIKEELYRS
notes: Monomer subunit of a designed untwisted C2 homodimer; entries pair it with itself
B8: binds [6].

B9: 2L6Hanti_3 (designed binder)
chain: SEKARIAVENLEAALRLNRAAAEMQKSAIKIMDDNRSDEKALRYLRLTTKVLRMSVELLRASLELAEKALREEGSDDSAEKVRKEAEEILKESTEILKEADKETKRADEEGS
notes: as for B6
B9: binds [5].

B10: 3L6HC2_4 (designed binder)
chain: SALEKIAKLIIEAARLSAELARRAARASAEMARKAIEAVSEERGSESLLKIVADLIVESQEAVVRLIIESQQIAAKLAEDLIRAAKEAASDESKMEEVAKEVQERAERAARDIERKLKRVLEELDYKLKESRDGS
notes: Monomer subunit of a designed parallel right-handed six-helix C2 homodimer; entries pair it with itself
B10: binds [7].

B11: 2L4HC2_23 (designed binder)
chain: GTRTEIIRELERSLREQEELAKRLKELLRELERLQREGSSDEDVRELLREIKELVEEIEKLAREQKYLVEELKRQD
notes: as for B3
B11: binds [8].

B12: 2L6HC3_6 (designed binder)
chain: GTKYKIKETLKRLEDSLRELRRILEELKEMLERLEKNPDKDVIVEVLKVIVKAIEASVENQRISAENQKALAESD
notes: Monomer subunit of a designed left-handed C3 homotrimer; entries pair it with itself; also called XXBB
B12: binds [1].

B13: 5L8HC4_1 (designed binder)
chain: GSKVEELLRKSEEAAERAKRELERLLEESERIVAEAQALAEKYESQKVWVRILIELIRATNRMLAEIARILLEMIEVTNRMIAESTK
notes: as for B4
B13: binds [4].

B14: 5L8HC4_2 (designed binder)
chain: SEQLKEIARILIKLIESLTRFILEVARILIELIEETQRLIVASTDSDESELERIARESKKKAKKALDELKKIVDDQRREAKKAIEELEYDGS
notes: as for B4
B14: binds [4].

B15: 2L8HC4_12 (designed binder)
chain: GTAIEANSRMLKALIEIAKAIWKALWANSLLLEATSRGDTERMRQWAEEAREIYKEAKKIIDEADEIVKEAKERHD
notes: Monomer subunit of a designed left-handed C4 homotetramer; entries pair it with itself; also called lefthanded tetramer
B15: binds [9].

B16: 2L6HC3_12 (designed binder)
chain: GTKYELRRALEELEKALQELREMLRKLKESLEELKKNPSEDALVRNNELIVEVLRVIVEVLSIIARVLEINARSD
notes: Monomer subunit of a designed left-handed C3 homotrimer; entries pair it with itself
B16: binds [2].

B17: 2L6HC3_13_inner (peptide)
peptide: Ac-TERENNYRNEENNRKIEEEIREIKKEIKKNKERD-NH2
notes: Synthetic inner-ring-only peptide; reported as unfolded and monomeric in isolation; also called inner ring peptide of 2L6HC3_13
B17: no binding [10].

B18: 2L4HC2_9 (designed binder)
chain: GTSDYIIEQIQRDQEEARKKVEEAEERLERVKEASKRGVSSDQLLDLIRELAEIIEELIRIIRRSNEAIKELIKNQS
notes: Monomer subunit (helical hairpin) of a designed left-handed C2 homodimer; entries pair it with itself; Expressed in E. coli with a His tag (C-terminal, or N-terminal and thrombin-cleavable); Underlined residues are said to be optional, but the underlining is not visible
B18: binds [11].

B19: 2L4HC2_11 (designed binder)
chain: GSEDYKLREAQRELDKQRKDTEEIRKRLKEIQRLTDERTSTADELIKELREIIRRLQEQSEKLREIIEELEKIIRKR
notes: as for B3
B19: binds [3].

B20: 2L6Hanti_5 (designed binder)
chain: TDVLRIAAENLKAAVELAKAALEMAKSAIEIAKTLTEDDEALKFARAAAEVLRMAAKLLKLSIELARKAAEEEGSDDEVRYILDEARKQADELREALKKVDEIMKELDKRGS
notes: as for B6
B20: binds [5].

B21: 3L6HC2_7 (designed binder)
chain: SILELAHESNRRALEMASRANREAMKAAREMIRAASEAARRAGSSNDKDSLRMIEEALRLALRMIEETNKKAVRMVLENNRKMVEAEKKKLSEEEIKRIAKETEDRMREIARRASEEARRLAEEIKREADYRSGS
notes: as for B10
B21: binds [7].
